Laboratory results from patent US20180044434A1 (PUBLIC UNIVERSITY CORPORATION YOKOHAMA CITY UNIVERSITY, published 2018).
Substitutions are numbered along the chain they refer to.

B1: humanized anti-PAD4 antibody derived from G8, VH H4.15 / VL L4.00 (antibody, human IgG1, kappa, V domains shown)
VH: EVQLLESGGGLVQPGGSLRLSCAASGFTFSTYAMGWVRQAPGKGLEFVSAIRNDGSWTGYGAAVKGRFTISRDNSKNTVYLQMNSLRAEDTAVYYCAKYTGSSGGSIGAWGQGTLVTVSS
VL: SYELTQPPSVSVSPGQTARITCSGGNRNYYYGWYQQKPGQAPVLVIYANDKRPSGIPERFSGSSSGTTVTLTISGVQAEDEADYYCGTADTGKYVFGGGTKLTVLG
notes: IgG1 kappa; also called G8 H4.15/L4.00
B2: humanized anti-PAD4 antibody derived from G8, VH H4.15 / VL L4.29 (antibody, human IgG1, kappa, V domains shown)
VH: B1 VH
VL: B1 VL with L44T, S64N, T67S, V69T
notes: IgG1 kappa; also called G8 H4.15/L4.29
B3: humanized anti-PAD4 antibody derived from G8, VH H4.32 / VL L4.17 (antibody, IgG1, V domains shown)
VH: B1 VH with S49A, F68V
VL: B1 VL with L44T, S64T, T67N, V69T
notes: IgG1 kappa; also called G8 H4.32/L4.17
B4: humanized anti-PAD4 antibody derived from G8, VH H4.32 / VL L4.06 (antibody, IgG1, V domains shown)
VH: B1 VH with S49A, F68V
VL: B1 VL with L44T, S64Y, T67N, V69T
notes: IgG1 kappa; also called G8 H4.32/L4.06
B5: humanized anti-PAD4 antibody derived from G8, VH H4.32 / VL L4.00 (antibody, IgG1, V domains shown)
VH: B1 VH with S49A, F68V
VL: B1 VL
notes: IgG1 kappa; also called G8 H4.32/L4.00
B6: humanized anti-PAD4 antibody derived from G8, VH H4.15 / VL L4.17 (antibody, human IgG1, kappa, V domains shown)
VH: B1 VH
VL: B1 VL with L44T, S64T, T67N, V69T
notes: IgG1 kappa; also called G8 H4.15/L4.17
B7: humanized anti-PAD4 antibody derived from G8, VH H4.15 / VL L4.06 (antibody, human IgG1, kappa, V domains shown)
VH: B1 VH
VL: B1 VL with L44T, S64Y, T67N, V69T
notes: IgG1 kappa; also called G8 H4.15/L4.06
B8: humanized anti-PAD4 antibody derived from H7, VH H4.00 / VL L4.15 (antibody, IgG1, V domains shown)
VH: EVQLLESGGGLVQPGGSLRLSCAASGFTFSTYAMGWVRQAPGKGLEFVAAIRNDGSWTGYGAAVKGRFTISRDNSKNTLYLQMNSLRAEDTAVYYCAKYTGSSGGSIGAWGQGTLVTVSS
VL: SYELTQPPSVSVSPGQTARITCSGGSGRYYYGWYQQKPGQAPVTVIYSSTHRPSGIPERFSGSNSGNTTTLTISGVQAEDEADYYCGTADSSSYVFGGGTKLTVLG
notes: IgG1 kappa; also called H7 H4.00/L4.15
B9: humanized anti-PAD4 antibody derived from H7, VH H4.32 / VL L4.00 (antibody, IgG1, V domains shown)
VH: B1 VH with S49A, F68V
VL: B8 VL with T44L, N64S, N67T, T69V
notes: IgG1 kappa; also called H7 H4.32/L4.00
B10: humanized anti-PAD4 antibody derived from H7, VH H4.15 / VL L4.06 (antibody, IgG1, V domains shown)
VH: B1 VH
VL: B8 VL with N64Y
notes: IgG1 kappa; also called H7 H4.15/L4.06
B11: humanized anti-PAD4 antibody derived from H7, VH H4.15 / VL L4.17 (antibody, IgG1, V domains shown)
VH: B1 VH
VL: B8 VL with N64T
notes: IgG1 kappa; also called H7 H4.15/L4.17
B12: humanized anti-PAD4 antibody derived from H7, VH H4.32 / VL L4.06 (antibody, IgG1, V domains shown)
VH: B1 VH with S49A, F68V
VL: B8 VL with N64Y
notes: IgG1 kappa; also called H7 H4.32/L4.06
B13: humanized anti-PAD4 antibody derived from G8, VH H4.00 / VL L4.17 (antibody, human IgG1, kappa, V domains shown)
VH: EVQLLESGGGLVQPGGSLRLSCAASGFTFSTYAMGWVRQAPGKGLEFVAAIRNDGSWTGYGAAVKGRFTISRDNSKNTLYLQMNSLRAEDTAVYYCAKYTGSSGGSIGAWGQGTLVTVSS
VL: B1 VL with L44T, S64T, T67N, V69T
notes: IgG1 kappa; also called G8 H4.00/L4.17
B14: humanized anti-PAD4 antibody derived from H7, VH H4.00 / VL L4.00 (antibody, IgG1, V domains shown)
VH: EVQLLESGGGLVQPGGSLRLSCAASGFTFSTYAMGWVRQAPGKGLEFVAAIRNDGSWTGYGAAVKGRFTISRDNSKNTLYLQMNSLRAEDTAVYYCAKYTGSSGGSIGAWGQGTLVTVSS
VL: B8 VL with T44L, N64S, N67T, T69V
notes: IgG1 kappa; also called H7 H4.00/L4.00
B15: humanized anti-PAD4 antibody derived from G8, VH H4.00 / VL L4.06 (antibody, human IgG1, kappa, V domains shown)
VH: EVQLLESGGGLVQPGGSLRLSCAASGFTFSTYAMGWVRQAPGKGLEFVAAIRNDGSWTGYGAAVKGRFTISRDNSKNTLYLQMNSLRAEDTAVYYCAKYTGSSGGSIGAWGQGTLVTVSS
VL: B1 VL with L44T, S64Y, T67N, V69T
notes: IgG1 kappa; also called G8 H4.00/L4.06
B16: humanized anti-PAD4 antibody derived from H7, VH H4.15 / VL L4.00 (antibody, IgG1, V domains shown)
VH: B1 VH
VL: B8 VL with T44L, N64S, N67T, T69V
notes: IgG1 kappa; also called H7 H4.15/L4.00
B17: humanized anti-PAD4 antibody derived from H7, VH H4.32 / VL L4.17 (antibody, IgG1, V domains shown)
VH: B1 VH with S49A, F68V
VL: B8 VL with N64T
notes: IgG1 kappa; also called H7 H4.32/L4.17
B18: humanized anti-PAD4 antibody derived from H7, VH H4.32 / VL L4.15 (antibody, IgG1, V domains shown)
VH: B1 VH with S49A, F68V
VL: B8 VL
notes: IgG1 kappa; also called H7 H4.32/L4.15
B19: humanized anti-PAD4 antibody derived from H7, VH H4.00 / VL L4.17 (antibody, IgG1, V domains shown)
VH: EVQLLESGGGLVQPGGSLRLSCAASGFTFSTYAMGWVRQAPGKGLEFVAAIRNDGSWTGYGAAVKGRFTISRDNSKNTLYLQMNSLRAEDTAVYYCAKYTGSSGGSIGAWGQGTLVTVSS
VL: B8 VL with N64T
notes: IgG1 kappa; also called H7 H4.00/L4.17
B20: humanized anti-PAD4 antibody derived from H7, VH H4.00 / VL L4.06 (antibody, IgG1, V domains shown)
VH: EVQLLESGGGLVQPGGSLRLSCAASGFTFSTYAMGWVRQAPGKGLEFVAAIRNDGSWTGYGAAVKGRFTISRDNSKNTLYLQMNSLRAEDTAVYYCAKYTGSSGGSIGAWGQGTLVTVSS
VL: B8 VL with N64Y
notes: IgG1 kappa; also called H7 H4.00/L4.06
B21: humanized anti-PAD4 antibody derived from H7, VH H4.15 / VL L4.15 (antibody, IgG1, V domains shown)
VH: B1 VH
VL: B8 VL
notes: IgG1 kappa; also called H7 H4.15/L4.15

Target: T1, full-length recombinant human PAD4 (human, UniProt Q9UM07 1-663)
T1 construct: Full-length recombinant; also called peptidylarginine deiminase 4
T1 sequence (Q9UM07 whole entry): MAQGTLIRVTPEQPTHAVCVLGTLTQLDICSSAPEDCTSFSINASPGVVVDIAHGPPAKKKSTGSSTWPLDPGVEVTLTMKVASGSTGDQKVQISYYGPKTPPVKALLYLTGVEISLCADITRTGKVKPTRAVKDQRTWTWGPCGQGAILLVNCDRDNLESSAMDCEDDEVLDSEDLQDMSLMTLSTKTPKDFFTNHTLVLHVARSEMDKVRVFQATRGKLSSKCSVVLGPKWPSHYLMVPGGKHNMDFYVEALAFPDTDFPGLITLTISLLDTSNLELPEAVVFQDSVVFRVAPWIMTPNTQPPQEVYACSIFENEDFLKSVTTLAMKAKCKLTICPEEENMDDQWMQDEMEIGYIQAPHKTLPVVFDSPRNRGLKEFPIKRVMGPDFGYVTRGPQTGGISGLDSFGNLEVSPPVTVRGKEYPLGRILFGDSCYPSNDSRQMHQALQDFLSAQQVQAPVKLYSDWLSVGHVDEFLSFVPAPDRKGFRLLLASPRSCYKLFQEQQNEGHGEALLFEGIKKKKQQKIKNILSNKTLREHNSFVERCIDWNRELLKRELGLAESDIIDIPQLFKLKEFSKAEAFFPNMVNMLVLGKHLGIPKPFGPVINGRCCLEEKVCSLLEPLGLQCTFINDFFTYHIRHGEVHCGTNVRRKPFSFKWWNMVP
Test: ELISA, immobilized human PAD4

| O.D. 490/630 at 0.0078125 µg/mL | O.D. 490/630 at 0.015625 µg/mL | O.D. 490/630 at 0.03125 µg/mL | O.D. 490/630 at 0.0625 µg/mL | O.D. 490/630 at 0.125 µg/mL | O.D. 490/630 at 0.25 µg/mL | O.D. 490/630 at 0.5 µg/mL | O.D. 490/630 at 1 µg/mL | Binder |
| --- | --- | --- | --- | --- | --- | --- | --- | --- |
| 0.707 | 1.11 | 1.52 | 1.84 | 1.87 | 1.87 | 1.86 | 1.85 | B1 |
| 1.15 | 1.56 | 1.85 | 1.91 | 1.86 | 1.86 | 1.81 | 1.84 | B2 |
| 1.2 | 1.56 | 1.83 | 1.88 | 1.89 | 1.83 | 1.83 | 1.82 | B3 |
| 1.21 | 1.6 | 1.82 | 1.91 | 1.86 | 1.85 | 1.81 | 1.79 | B4 |
| 0.364 | 0.649 | 1.05 | 1.52 | 1.76 | 1.84 | 1.91 | 1.87 | B5 |
| 1.24 | 1.66 | 1.86 | 1.93 | 1.87 | 1.81 | 1.82 | 1.83 | B6 |
| 1.31 | 1.68 | 1.9 | 1.92 | 1.91 | 1.87 | 1.79 | 1.77 | B7 |
| 1.31 | 1.71 | 1.89 | 1.92 | 1.87 | 1.89 | 1.87 | 1.86 | B8 |
| 0.389 | 0.713 | 1.17 | 1.65 | 1.77 | 1.85 | 1.81 | 1.82 | B9 |
| 1.22 | 1.68 | 1.82 | 1.83 | 1.84 | 1.82 | 1.82 | 1.84 | B10 |
| 1.31 | 1.63 | 1.81 | 1.9 | 1.81 | 1.81 | 1.82 | 1.77 | B11 |
| 1.22 | 1.64 | 1.9 | 1.94 | 1.82 | 1.86 | 1.81 | 1.77 | B12 |
| 1.31 | 1.62 | 1.84 | 1.89 | 1.82 | 1.81 | 1.8 | 1.8 | B13 |
| 0.441 | 0.752 | 1.21 | 1.72 | 1.88 | 1.89 | 1.91 | 1.92 | B14 |
| 1.22 | 1.64 | 1.83 | 1.95 | 1.85 | 1.81 | 1.83 | 1.8 | B15 |
| 0.429 | 0.764 | 1.23 | 1.71 | 1.84 | 1.9 | 1.88 | 1.86 | B16 |
| 1.28 | 1.77 | 1.95 | 1.98 | 1.86 | 1.86 | 1.81 | 1.79 | B17 |
| 1.34 | 1.77 | 1.89 | 1.94 | 1.87 | 1.84 | 1.78 | 1.79 | B18 |
| 1.3 | 1.71 | 1.85 | 1.91 | 1.87 | 1.86 | 1.85 | 1.86 | B19 |
| 1.26 | 1.75 | 1.9 | 2 | 1.87 | 1.89 | 1.86 | 1.86 | B20 |
| 1.25 | 1.65 | 1.82 | 1.87 | 1.83 | 1.84 | 1.83 | 1.82 | B21 |
